# Reference: IntAct's records for PubMed 31147388
# B1: Protein tost-1 (Caenorhabditis elegans), Q18490 (parent)
# chain: MTTAIQYQVIPLADREHSNKVASILENKYKTATNKRITLNERFGVLEKGYTIQATEPETVKNDSDVFFVVHDRNLNSKKEFVENYLAKNPIVNSPEKVFEEEDKENAPTKKAVLKPSSTDEKKLTSSDIYIQEITRSILQSV
# partner: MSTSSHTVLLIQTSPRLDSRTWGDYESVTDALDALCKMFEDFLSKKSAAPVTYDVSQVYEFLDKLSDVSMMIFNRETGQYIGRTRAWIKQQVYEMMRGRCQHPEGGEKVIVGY
# B2: Protein pid-1 (Caenorhabditis elegans), Q19541 (parent)
# chain: MSAKREFSHITLASTPFKKRIDQNSLKTDSDIEKDTNIAHKCAERFNYNTNLHRKVTLSDRFELAALGYEMKAKPRTIIEKHNDCDEFHFIYRKEKKNDYGTGSPLSAGLSLSNPLPAGRGFLSPAIQNTSNQFTFSGSPRITPQKHTPVSANHKPARSIFDDIPSNIA
# partner: B1 partner
# Variants of: B1
# Settings: with erh2_caeel erh-2, Q20057
row,effect of a mutation on the interaction,Variant
1,disrupting interaction strength,MTTAIQYQVIPLADREHSNKVASILENKYKTATNKRITLNECFGVLEKGYTIQATEPETVKNDSDVFFVVHDRNLNSKKEFVENYLAKNPIVNSPEKVFEEEDKENAPTKKAVLKPSSTDEKKLTSSDIYIQEITRSILQSV [R42C]

# Variants of: B2
# Settings: with erh2_caeel erh-2, Q20057
row,effect of a mutation on the interaction,Variant
1,decreasing interaction strength,MSAKREFSHITLASTPFKKRIDQNSLKTDSDIEKDTNIAHKCAERFNYNTNLHRKVTLSDCFELAALGYEMKAKPRTIIEKHNDCDEFHFIYRKEKKNDYGTGSPLSAGLSLSNPLPAGRGFLSPAIQNTSNQFTFSGSPRITPQKHTPVSANHKPARSIFDDIPSNIA [R61C]

# Variants of: B2
# Settings: with erh2_caeel erh-2, Q20057
# Remark: another data set of the same source
row,effect of a mutation on the interaction,Variant
1,disrupting interaction strength,MSAKREFSHITLASTPFKKRIDQNSLKTDSDIEKDTNIAHKCAERFNYNTNLHRKVTLSDCFELAALGYEMKAKPRTIIEKHNDCDEFHFIYRKEKKNDYGTGSPLSAGLSLSNPLPAGRGFLSPAIQNTSNQFTFSGSPRITPQKHTPVSANHKPARSIFDDIPSNIA [R61C]
